This note sets out measurements from patent publication EP1852441B1 (The Burnham Institute, dated 2004).

Test [1] concerns the target T1, histidine-tagged mouse EphA2 Fc fusion protein (mouse, UniProt Q03145 26-535, limits assumed).
T1 construct: Bought; also called Eph2 Fc; not shown: Fc region; histidine tag
In words: SPR (BIAcore 3000), EphA2 Fc coupled to the chip, equilibrium binding. (In general: In SPR one partner is held on a chip, and binding of the other changes the refractive index at the surface.)

Test [2] addresses T2, EphB4 Fc.
T2 construct: also called EpbB4
Put plainly: immobilized biotinylated peptide capturing Eph receptor Fc.

As a reminder, the Kd is the free concentration of one partner at which half of the binding sites on the other are occupied at equilibrium, for simple one-to-one binding. Lower therefore signals a tighter complex.

Where no end group is shown, it is not given here.

T1 sequence (Q03145 26-535 limits assumed): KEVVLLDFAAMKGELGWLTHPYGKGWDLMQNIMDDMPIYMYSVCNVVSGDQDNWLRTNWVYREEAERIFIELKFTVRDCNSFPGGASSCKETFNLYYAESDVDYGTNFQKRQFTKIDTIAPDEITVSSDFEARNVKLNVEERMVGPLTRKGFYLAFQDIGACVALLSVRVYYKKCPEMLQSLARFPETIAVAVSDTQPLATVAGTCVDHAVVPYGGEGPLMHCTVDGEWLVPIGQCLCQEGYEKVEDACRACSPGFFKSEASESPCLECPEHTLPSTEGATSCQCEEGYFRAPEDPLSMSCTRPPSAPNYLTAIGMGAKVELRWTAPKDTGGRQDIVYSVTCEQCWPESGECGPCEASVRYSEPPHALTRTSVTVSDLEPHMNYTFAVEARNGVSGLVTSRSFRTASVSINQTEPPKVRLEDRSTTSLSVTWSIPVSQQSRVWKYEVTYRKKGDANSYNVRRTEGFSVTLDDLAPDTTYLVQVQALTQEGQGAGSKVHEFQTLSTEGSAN
T2 sequence (P54761 16-539): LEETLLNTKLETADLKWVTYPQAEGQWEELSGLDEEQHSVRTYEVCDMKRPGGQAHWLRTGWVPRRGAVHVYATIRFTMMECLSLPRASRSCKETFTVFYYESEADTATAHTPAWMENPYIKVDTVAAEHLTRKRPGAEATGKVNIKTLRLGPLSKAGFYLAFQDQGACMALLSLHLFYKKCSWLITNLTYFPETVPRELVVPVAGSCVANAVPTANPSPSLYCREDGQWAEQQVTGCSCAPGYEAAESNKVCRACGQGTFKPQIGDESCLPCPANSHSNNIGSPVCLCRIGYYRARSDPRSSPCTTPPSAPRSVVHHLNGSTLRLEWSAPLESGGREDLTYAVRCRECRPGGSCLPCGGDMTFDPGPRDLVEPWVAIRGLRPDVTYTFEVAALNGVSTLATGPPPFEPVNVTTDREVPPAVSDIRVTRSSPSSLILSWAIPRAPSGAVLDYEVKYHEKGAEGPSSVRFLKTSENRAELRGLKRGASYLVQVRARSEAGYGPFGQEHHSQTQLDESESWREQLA

Turning to SWLAYPGAVSYRGSGSK (also: biotinylated (position not given here)) [synthetic SWL peptide (SWLAYPGAVSYR)], the equilibrium dissociation constant (Kd) in test [1] turned out to be 678 nM. This counts as sub-micromolar.
For the molecule DALNDWLLFRPWGSGSK (also: biotinylated (position not given here)) [synthetic DAL peptide (DALNDWLLFRPW)], the “fold more EphB4 bound than other EphB family receptors” value in test [2] was 4 fold.
